These are literature values, as cited in article PMC5536120.

The target of data set [1] is knob B peptide GHRP (Homo sapiens) (UniProt P02675).
Data set [2] concerns the target Fibrin central fragment central region (knobs A) (Homo sapiens) (UniProt P02671).

UniProt P02675, sequence (P02675 whole entry, looked up, the tested form may be a part): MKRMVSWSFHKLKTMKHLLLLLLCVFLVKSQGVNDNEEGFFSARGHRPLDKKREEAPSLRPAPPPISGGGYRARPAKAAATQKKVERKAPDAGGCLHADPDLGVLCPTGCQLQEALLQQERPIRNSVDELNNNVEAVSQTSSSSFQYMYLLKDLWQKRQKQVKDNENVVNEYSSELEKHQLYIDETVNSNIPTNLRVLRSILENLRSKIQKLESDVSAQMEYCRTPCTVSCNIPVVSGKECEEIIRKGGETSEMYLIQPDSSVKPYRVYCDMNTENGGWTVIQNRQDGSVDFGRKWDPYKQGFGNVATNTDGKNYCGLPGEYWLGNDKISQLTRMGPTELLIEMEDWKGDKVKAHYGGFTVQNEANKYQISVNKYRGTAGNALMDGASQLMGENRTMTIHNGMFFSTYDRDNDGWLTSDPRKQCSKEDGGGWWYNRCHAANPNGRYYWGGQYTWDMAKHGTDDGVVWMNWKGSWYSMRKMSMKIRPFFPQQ

For the substance Fibrinogen (from UniProt P02671), the Kd in data set [1] was 140 µM; in data set [2], 5.8 µM.
